T1: mouse Aurora-A (Mus musculus, UniProt P97477, K218R/M280L/N164G)
T1 construct: mouse Aurora-A residues 98-395; GST (N, cleaved yes); made in house; host or cells: E. coli BL21(DE3) Star, co-expressed with lambda phosphatase; a second 98-395 preparation came from insect cells
T1 sequence (P97477 with tags, fused parts or gaps N164G/K218R/M280L): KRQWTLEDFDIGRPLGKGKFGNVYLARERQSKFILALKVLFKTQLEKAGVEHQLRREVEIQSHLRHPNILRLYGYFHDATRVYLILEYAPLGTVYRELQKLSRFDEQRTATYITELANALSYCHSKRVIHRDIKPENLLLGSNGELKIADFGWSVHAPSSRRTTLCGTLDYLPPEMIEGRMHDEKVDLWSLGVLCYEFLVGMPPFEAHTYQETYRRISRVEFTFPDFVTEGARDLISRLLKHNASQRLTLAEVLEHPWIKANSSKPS


Key:
[1] = Electrospray mass spectrometry of purified protein for proteolysis between residues 291 and 292; format: physicochemical; details: expressed in E. coli, GST-tagged protein
Description: mAurB 7X was expressed in E. coli, purified as described below, and analyzed by electrospray mass spectrometry to verify the integrity of the purified protein. […] A construct missing the Val291→Ser and Met258→Lys mutations (referred to as mAurB 5X) was purified, and analyzed by mass spec to determine the extent of proteolysis between Val291 and Lys292. Even in this wild type configuration, proteolysis still affected approximately 25% of total GST-tagged protein. Two additional conservative mutations were introduced to eliminate the major site of proteolysis: Val291→Leu and Lys292→Arg referred to as mAurB 8X VK→LR (5′ primer: SEQ ID NO:53; 3′ primer: SEQ ID NO:54) and Val291→Leu and Lys292→Gln referred to as mAurB 8X VK→LQ (5′ primer: SEQ ID NO:55; 3′ primer: SEQ ID NO:56). The protein sequences of the mAurB 8X VK→LR and mAurB 8X VK→LQ are provided in SEQ ID NO:57 and SEQ ID NO:58, respectively.

[2] = biological target: T2, mouse Aurora-B (Mus musculus, UniProt O70126, L215S/L233S/M258K/P302T/P322T/V291S/W318S); assay: Aurora-B enzyme activity assay (HTRF); format: biochemical; details: 20 nM construct against 300 nM commercially available Aurora-B
T2 construct: made in house; host or cells: E. coli BL21(DE3) Star
Protocol: Aurora-B enzyme preparations were tested for kinase activity in the presence and absence of compounds using a homogeneous time resolved fluorescence (HTRF) assay. In brief, the assay was performed by adding enzyme under appropriate reaction conditions to a tagged substrate. After the kinase reaction proceeds, quenching reagent is added, along with a first molecule consisting of a fluorescence donor conjugated to an antibody recognizing the phosphorylated substrate, and a second molecule that recognizes the tag and that is conjugated to a fluorescence acceptor. The extent of the kinase reaction is measured by time-resolved fluorescence transfer from the fluorescence donor to the fluorescence acceptor in a detection buffer, which occurs when the donor and acceptor are in proximity to one another on the phosphorylated substrate.
The assay was carried out as follows. […]
A 5 μL aliquot of the quenched reaction was transferred to a separate plate containing 5 μL detection buffer (final concentrations: 125 ng/mL europium cryptate-conjugated α-phospho H3 antibody, 8 nM streptavidin-tagged XL665, 25 mM HEPES buffer (pH 7.0), 0.25 M KF, and 0.05% BSA). The detection solution was allowed to incubate at room temperature for 45 min, after which the detection reactions were read on an Analyst AD (LJL Biosystems). […] Delta F is a value calculated from the ratio between the 665 nm and 620 nm emissions. […]

[3] = biological target: T1, mouse Aurora-A; assay: Aurora-A activity assay (HTRF, enzyme and ATP titrations, histone H3 peptide substrate); format: biochemical; details: compared with the longer construct, FIG. 4
Protocol: (§1) Protein samples were diluted to 1 mg/mL and incubated for 2 hrs at 4° C. with 1 mM ATP and 5 mM MgCl2. Excess ATP was removed by extensive dialysis against 50 mM Tris-HCl pH 7.5, 200 mM NaCl, and 3 mM DTT.
(§2) Aurora A was titrated twofold in an assay buffer composed of 10 mM Tris-HCl pH 7.2, 10 mM MgCl2, 0.1% BSA, 0.01% Triton X-100 and 1 mM DTT, and containing 120 nM of biotinylated histone H3 substrate peptide (Upstate Biotechnology). The kinase reactions were initiated by adding 10 μL ATP to a final volume of 60 μL and the final ATP concentration of 20 μM. The reactions were incubated at 25° C. for 60 min and terminated by adding EDTA to a final concentration of 200 mM.
(§3) To determine the Km for ATP, ATP was titrated twofold in the assay buffer. The kinase reaction was initiated by adding 50 μL Aurora A (16 nM of insect cell-produced mouse enzyme with residues 98-395, 8 nM of the bacterially produced enzyme with residues 98-395, and 30 nM of the E. coli-expressed crystallography construct with residues 116-381) and histone H3 to a final volume of 60 μL and a final concentration of 120 nM.
(§4) To detect the assay product, the kinase reaction solution was combined with the detection buffer (the KF buffer) supplemented with 0.4 ng/μL phospho-histone H3 europium cryptate-conjugated antibody and 16 nM streptavidin-XL665 (both from Cisbio) in a 1:1 ratio in a 384-well plate. The mixture was incubated for 45 minutes at 25° C. and the plate was then scanned on the Analyst AD system. The fluorescence value F is defined as the ratio of fluorescent emissions at 620 and 665 nm. ΔF was generated by subtracting the average F value for negative control for enzyme activity from the F value in each reaction well. ΔF was plotted against enzyme concentration (for enzyme titrations) or against ATP concentration (for ATP titrations) with GraphPad Prism. The Km values and confidence intervals were determined by fitting the ATP titration curve in GraphPad Prism to the following equation: y=(Vmax*x)/(Km+x), where y is ΔF/hr and x is an ATP concentration.

[4] = test system: mouse Aurora-A; assay: as above; format: biochemical; details: for Km / Vmax/[enzyme]: ATP titration; for Km: 120 nM biotinylated histone H3 peptide, 25° C., fit in GraphPad Prism; for Vmax/[enzyme]: ΔF/hr per nM enzyme
Protocol: as §1, §2, §3, §4

Row | Molecule | extent of proteolysis between residue 291 and Lys292 [1] | activity compared with commercially available Aurora-B [2] | change in Km for ATP (in words) [3] | Km [4] | Vmax/[enzyme] [4] | enzyme activity (in words) ([4]; H3 peptide as substrate, FIG. 4)
1 | mAurB 7X: truncated mouse Aurora-B with 7 hydrophobic surface residues mutated, GST-tagged (protein, listed as Mus musculus, GST tag, truncated mouse Aurora-B with 7 hydrophobic surface residues mutated, GST-tagged) KRQFTIDNFEIGRPLGKGKFGNVYLAREKKSRFIVALKILFKSQIEKEGVEHQLRREIEIQAHLKHPNILQLYNYFYDQQRIYLILEYAPRGELYKELQKSRTFDEQRTATIMEELSDALTYCHKKKVIHRDIKPENLLLGSQGELKIADFGWSVHAPSSRRKTMCGTLDYLPPEMIEGRMHNEKVDLWCIGVLCYELMVGNPPFESPSHSETYRRISKVDLKFPSSVTSGAQDLISKLLKHNPSQRLTLAEVAAHPWVRANSRRPS | Approximately 50% | compares favorably |  |  |  | 
2 | E. coli-produced 116-381: E. coli-expressed mouse Aurora-A crystallography construct, residues 116-381 (human residues 125-391) (protein, Mutated Constructs) KRQWTLEDFDIGRPLGKGKFGNVYLARERQSKFILALKVLFKTQLEKAGVEHQLRREVEIQSHLRHPNILRLYGYFHDATRVYLILEYAPLGTVYRELQKLSRFDEQRTATYITELANALSYCHSKRVIHRDIKPENLLLGSNGELKIADFGWSVHAPSSRRTTLCGTLDYLPPEMIEGRMHDEKVDLWSLGVLCYEFLVGMPPFEAHTYQETYRRISRVEFTFPDFVTEGARDLISRLLKHNASQRLTLAEVLEHPWIKANSSKPS |  |  | substantial increase in the Km for ATP | 65.3 ± 16.1 µM | 280 h⁻¹ nM⁻¹ | less active
3 | insect cell-expressed 98-395: insect cell-produced mouse Aurora-A enzyme with residues 98-395 (human residues 107-403) (protein, UniProt P97477 98-395, looked up, fragment) GNDSEKEQASLQKTEDTKKRQWTLEDFDIGRPLGKGKFGNVYLARERQSKFILALKVLFKTQLEKANVEHQLRREVEIQSHLRHPNILRLYGYFHDATRVYLILEYAPLGTVYRELQKLSKFDEQRTATYITELANALSYCHSKRVIHRDIKPENLLLGSNGELKIADFGWSVHAPSSRRTTMCGTLDYLPPEMIEGRMHDEKVDLWSLGVLCYEFLVGMPPFEAHTYQETYRRISRVEFTFPDFVTEGARDLISRLLKHNASQRLTLAEVLEHPWIKANSSKPPTGHTSKEPTSKSS |  |  |  | 13.6 ± 3.9 µM | 590 h⁻¹ nM⁻¹ | 
4 | E. coli-produced 98-395: bacterially produced mouse Aurora-A residues 98-395 with three humanizing and stabilizing mutations (protein, Mutated Constructs, bacterially produced mouse Aurora-A residues 98-395 with three humanizing and stabilizing mutations) GNDSEKEQASLQKTEDTKKRQWTLEDFDIGRPLGKGKFGNVYLARERQSKFILALKVLFKTQLEKAGVEHQLRREVEIQSHLRHPNILRLYGYFHDATRVYLILEYAPLGTVYRELQKLSRFDEQRTATYITELANALSYCHSKRVIHRDIKPENLLLGSNGELKIADFGWSVHAPSSRRTTLCGTLDYLPPEMIEGRMHDEKVDLWSLGVLCYEFLVGMPPFEAHTYQETYRRISRVEFTFPDFVTEGARDLISRLLKHNASQRLTLAEVLEHPWIKANSSKPPTGHTSKEPTSKSS |  |  |  | 10.5 ± 3.5 µM | 1035 h⁻¹ nM⁻¹ | 
